Test results as given in the supplement of paper PMC9170038.

Tested on: MS2 coat protein
Test: apparent KD of MS2 coat protein; designed switch direction (-1 OFF switch, 1 ON switch): -1; higher = weaker reporter binding
Procedure, shortened: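 Designed RNA switches with common flanks were transcribed on Illumina chips by stalled E. coli RNA polymerase and titrated with SNAP-549-labelled MS2 coat protein, from 0.7 or 1.5 nM doubling to 3 µM, in Tris-HCl pH 7.5 buffer with KCl, MgCl2, BSA, DTT, tRNA and Tween-20. Steps lasted 0.8–1.5 h (lowest) to 10–20 min (highest). Titrations ran without input, with 200 uM small-molecule ligand, or with an oligonucleotide input. Normalised cluster fluorescence was curve-fitted, and apparent KD is the per-design median over clusters.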

[1] = Eterna round: R95, input ligand: FMN 200 uM
[2] = Eterna round: R95, input ligand: microRNA oligo, concentration not stated
[3] = Eterna round: R95, input ligand: none
[4] = input ligand: microRNA oligo, concentration not stated

Sequence	apparent KD of MS2 coat protein [1]	apparent KD of MS2 coat protein [2]	apparent KD of MS2 coat protein [3]	apparent KD of MS2 coat protein (input ligand: FMN 200 uM)	apparent KD of MS2 coat protein [4]	apparent KD of MS2 coat protein (input ligand: none)
AGUACUAACACGAAAGUGUUAGUACAAUAAGCUUGUAAAACAUGAGGAUCACCCAUGUCCUCAUAAGCUCGUCUUAU [Mat - Sensor v3 - Turn-off var 2 - D47] (puzzle: Sensor v3, turn-off variant 2)	250 nM	11.5 nM	446 nM			
AGCGCCAUCGUGAGAUGGCGUAUUACAUGAGGAUCACCCAUGUAGGAUAUCGAUUGCUUUGCAGUCGAGAAGGACAUGUUCUUU [JL ENG3 3.80 Mod D] (Eterna round: R96, puzzle: Exclusion NG 3)				27.1 nM	19.3 nM	23.4 nM
GGUUGCGCAGGAUAUACAUGAGGAUCACCCAUGUGAGAGAAAUAAGUGAGGAAGAAAAGUAGAAGGGCGUGACG [Mat - Exclusion 3 - Mod of Salish D72] (puzzle: Exclusion 3)	170 nM	37.7 nM	68.9 nM			
AGCUGACAAGGAUAUACAUGAGGAUCACCCAUGUUGGUCAAGCGACGAUAGUCGCAAUGUAGAAGGUGUCAGCU [E3/8-C1] (Eterna round: R97, puzzle: Exclusion 3)				1750 nM		341 nM
GUCGUGUUAGGAUAUGCAUGUGGACGAUGUUCUCCGCCGGUGUAGAAGGAACAUGAGGAUCACCCAUGUGCCUA [Eternabot (L1) Solution 79] (Eterna round: R97, puzzle: Exclusion 4)				45.6 nM		52.5 nM
AGCUGUGGCCGAGGAUAUCUACAUGAGGAUCACCCAUGUAAAGGGUGUAUCGGGAAAACCUCGAUGGAGAAGGCGGUCUCAGCA [Eli eng2 - 047] (Eterna round: R96, puzzle: Exclusion NG 2)				95.5 nM	45.3 nM	296 nM
CUUUAGUGAGGAUAUCGGUAGUAAUACAAUAGUAUUACUACUGAGAAGGCACAUGAGGAUCACCCAUGUUCCUC [Mat - Exclusion 4 - Mod of Omei - D82] (puzzle: Exclusion 4)		30.2 nM				
ACAUGUUGCGCAGGAUAUGGGACACAUGAGGAUCACCCAUGUGGUUUCAUGUCUAACCAAGCGUCCCAGAAGGGCGUGAACAUG [Ex NG2 #30] (Eterna round: R96, puzzle: Exclusion NG 2)				41.8 nM	20.8 nM	19.9 nM
AAAACGUCAGGAUAUACGAAAUAAAAUAAAAUAAAAUAAAAGUAGAAGGGACAUGAGGAUCACCCAUGUAAUAA [Exclusion 4 #1] (puzzle: Exclusion 4)	43.7 nM	26.6 nM	36.2 nM			
CUCAUGUGAGGAUAUGUGAUCUGCUUUCUGUGUAGAUGAUCACAGAAGGCACAUGAGGAUCACCCAUGUAGAUC [Ex4 - 3 - 28] (Eterna round: R96, puzzle: Exclusion 4)				65.7 nM	93.9 nM	91 nM
UUGUUACAUGAGGAUCACCCAUGUGAGGAUAUGGUUCAGUACUGUCAUGUCACGUACUCCAGAAGGCACAUGUU [1st #31] (Eterna round: R97, puzzle: Exclusion 1)				363 nM		120 nM
GCGUACUGAGGAUAUACAUGAGGAUCACCCAUGUGAAGAAGAAAGUAGUGAUGGUUGGGUAGAAGGCAGUAUGC [JR_Ex3_Sub064] (Eterna round: R97, puzzle: Exclusion 3)				103 nM		98.5 nM
AAGCCUGGCUCAGGAUAUACAUGAGGAUCACCCAUGUUCUCAGUGAGGCAAGAUAACAACACGACGUAGAAGGGAGCUAGGCCG [Eternabot solution 5] (Eterna round: R96, puzzle: Exclusion NG 2)				81.7 nM	17.9 nM	40 nM
AAAGGGUGAGGAUAUCCAUCUGGAUCAGACUAGAUCCUGAUGGAGAAGGCACAUGAGGAUCACCCAUGUGAGUU [Eli 4x 4.33] (Eterna round: R97, puzzle: Exclusion 4)				112 nM		99.2 nM
AUUAAGUGAGGAUAUACAAGAUCGCUUACCGCCAAAGGCGGACAUGAGGAUCACCCAUGUAGAAGGCACAAAUU [Vesoanor] (puzzle: Exclusion 2)		40.9 nM				
AAAAGAGUAGGAUAUCUGACGCGAAACAUGAGGAUCACCCAUGUAGGGCGGUCCUGCUUAAGAGAAGGGCUCAAAU [Sodirira] (puzzle: Exclusion 5)		88.9 nM				
CCUGCGGACAAAGGAUAUUGCGGUGACCGGCUCGGCGUACCGAGCCUACAUGAGGAUCACCCAUGUAAGAAGGUUGUCGCUGGU [JL ViennaUCT Qudice mod 2] (Eterna round: R96, puzzle: Exclusion NG 2)				104 nM	19.1 nM	24.8 nM
